The supplement of paper PMC10567573

B1: LARP4 (parent)
chain: WTVANMEEIKKLTTDPDLILEVLR

Variants of: B1
Experiment: protein stability index of a GFP-peptide fusion (GPS, HEK-293T) (PSI 1-6); higher = more stable
Settings: c terminus: a fixed tail appended
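Further: lentivirally expressed fusions sorted by FACS into six bins by GFP to DsRed ratio, PSI derived from sequencing read proportions per bin multiplied by bin number.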

| Variant | protein stability index |
| --- | --- |
| WTVANMEEIKKLTTDHDLILEVLR [P16H] | 1.63 |
| WTVANMEEIKKLTTDNDLILEVLR [P16N] | 1.93 |
| WTVANMEEIKKLTTDLDLILEVLR [P16L] | 2.21 |
| WTVANMEEIKKLTTDKDLILEVLR [P16K] | 1.59 |
| WTVANMEEIKKLTTDEDLILEVLR [P16E] | 2.22 |
| WTVANMEEIKKLTTDDDLILEVLR [P16D] | 2.38 |
| WTVANMEEIKKLTTDQDLILEVLR [P16Q] | 1.84 |
| WTVANMEEIKKLTTDWDLILEVLR [P16W] | 1.43 |
| WTVANMEEIKKLTTDCDLILEVLR [P16C] | 1.75 |
| WTVANMEEIKKLTTDYDLILEVLR [P16Y] | 1.91 |
| WTVANMEEIKKLTTDFDLILEVLR [P16F] | 1.63 |
| WTVANMEEIKKLTTDMDLILEVLR [P16M] | 2.11 |
| WTVANMEEIKKLTTDIDLILEVLR [P16I] | 1.67 |
| WTVANMEEIKKLTTDRDLILEVLR [P16R] | 2.25 |
| WTVANMEEIKKLTTDADLILEVLR [P16A] | 1.55 |
| WTVANMEEIKKLTTDSDLILEVLR [P16S] | 2.28 |
| WTVANMEEIKKLTTDTDLILEVLR [P16T] | 1.89 |
| WTVANMEEIKKLTTDVDLILEVLR [P16V] | 1.2 |
| WTVANMEEIKKLTTDPDLILEMLR [V22M] | 1.91 |
| WTVANMEEIKKLTTDPDLILECLR [V22C] | 2.86 |
| WTVANMEEIKKLTTDPDLILEQLR [V22Q] | 3.18 |
| WTVANMEEIKKLTTDPDLILEALR [V22A] | 2.79 |
| WTVANMEEIKKLTTDPDLILETLR [V22T] | 2.25 |
| WTVANMEEIKKLTTDPDLILEPLR [V22P] | 2.23 |

| Variant | protein stability index |
| --- | --- |
| WTVANMEEIKKLTTDPDLILELLR [V22L] | 2.34 |
| WTVANMEEIKKLTTDPDLILEHLR [V22H] | 3.48 |
| WTVANMEEIKKLTTDPDLILEGLR [V22G] | 2.48 |
| WTVANMEEIKKLTTDPDLILEELR [V22E] | 3.59 |
| WTVANMEEIKKLTTDPDLILEFLR [V22F] | 2.77 |
| WTVANMEEIKKLTTDPDLILESLR [V22S] | 2.56 |
| WTVANMEEIKKLTTDPDLILERLR [V22R] | 2.48 |
| WTVANMEEIKKLTTDPDLILEILR [V22I] | 2.14 |
| WTVANMEEIKKLTTDPDLILEKLR [V22K] | 3.3 |
| WTVANMEEIKKLTTDPDLILEDLR [V22D] | 3.77 |
| WTVANMEEIKKLTTDPDLILENLR [V22N] | 3.25 |
| WTVANMEEIKKLTTDPDLILEWLR [V22W] | 2.33 |
| WTVANMEEIKKLTTDPDLILEYLR [V22Y] | 2.64 |
| WTVANMEEIKKLTTDPDQILEVLR [L18Q] | 3.13 |
| WTVANMEEIKKLTTDPDGILEVLR [L18G] | 2.95 |
| WTVANMEEIKKLTTDPDAILEVLR [L18A] | 2.71 |
| WTVANMEEIKKLTTDPDDILEVLR [L18D] | 2.77 |
| WTVANMEEIKKLTTDPDHILEVLR [L18H] | 2.6 |
| WTVANMEEIKKLTTDPDFILEVLR [L18F] | 1.92 |
| WTVANMEEIKKLTTDPDEILEVLR [L18E] | 3.67 |
| WTVANMEEIKKLTTDPDSILEVLR [L18S] | 3.05 |
| WTVANMEEIKKLTTDPDKILEVLR [L18K] | 2.8 |
| WTVANMEEIKKLTTDPDVILEVLR [L18V] | 2.99 |
| WTVANMEEIKKLTTDPDRILEVLR [L18R] | 2.87 |

| Variant | protein stability index |
| --- | --- |
| WTVANMEEIKKLTTDPDYILEVLR [L18Y] | 3.46 |
| WTVANMEEIKKLTTDPDCILEVLR [L18C] | 2.34 |
| WTVANMEEIKKLTTDPDTILEVLR [L18T] | 2.26 |
| WTVANMEEIKKLTTDPDWILEVLR [L18W] | 2.54 |
| WTVANMEEIKKLTTDPDMILEVLR [L18M] | 2.55 |
| WTVANMEEIKKLTTDPDNILEVLR [L18N] | 3.53 |
| WTVANMEEIKKLTTDPDPILEVLR [L18P] | 2.33 |
| WTVANMEEIKKLTTDPDIILEVLR [L18I] | 2.5 |
| WTVANMEEIKKLTMDPDLILEVLR [T14M] | 2.54 |
| WTVANMEEIKKLTPDPDLILEVLR [T14P] | 2.01 |
| WTVANMEEIKKLTIDPDLILEVLR [T14I] | 2.08 |
| WTVANMEEIKKLTSDPDLILEVLR [T14S] | 1.91 |
| WTVANMEEIKKLTDDPDLILEVLR [T14D] | 2.46 |
| WTVANMEEIKKLTRDPDLILEVLR [T14R] | 2.14 |
| WTVANMEEIKKLTHDPDLILEVLR [T14H] | 3.88 |
| WTVANMEEIKKLTEDPDLILEVLR [T14E] | 2.44 |
| WTVANMEEIKKLTYDPDLILEVLR [T14Y] | 1.65 |
| WTVANMEEIKKLTADPDLILEVLR [T14A] | 2.08 |
| WTVANMEEIKKLTNDPDLILEVLR [T14N] | 2.52 |
| WTVANMEEIKKLTLDPDLILEVLR [T14L] | 1.99 |
| WTVANMEEIKKLTFDPDLILEVLR [T14F] | 1.39 |
| WTVANMEEIKKLTGDPDLILEVLR [T14G] | 2.01 |
| WTVANMEEIKKLTKDPDLILEVLR [T14K] | 2.21 |
| WTVANMEEIKKLTVDPDLILEVLR [T14V] | 1.05 |

| Variant | protein stability index |
| --- | --- |
| WTVANMEEIKKLTQDPDLILEVLR [T14Q] | 2.59 |
| WTVANMEEIKKLTWDPDLILEVLR [T14W] | 1.75 |
| WTVANMEEIKKLTCDPDLILEVLR [T14C] | 1.77 |
| WTVANMEEIKKLTTDPDLWLEVLR [I19W] | 2.47 |
| WTVANMEEIKKLTTDPDLNLEVLR [I19N] | 2.91 |
| WTVANMEEIKKLTTDPDLFLEVLR [I19F] | 2.18 |
| WTVANMEEIKKLTTDPDLLLEVLR [I19L] | 2.12 |
| WTVANMEEIKKLTTDPDLHLEVLR [I19H] | 2.82 |
| WTVANMEEIKKLTTDPDLTLEVLR [I19T] | 2.96 |
| WTVANMEEIKKLTTDPDLALEVLR [I19A] | 2.49 |
| WTVANMEEIKKLTTDPDLDLEVLR [I19D] | 3.77 |
| WTVANMEEIKKLTTDPDLQLEVLR [I19Q] | 3.12 |
| WTVANMEEIKKLTTDPDLVLEVLR [I19V] | 1.59 |
| WTVANMEEIKKLTTDPDLRLEVLR [I19R] | 3.21 |
| WTVANMEEIKKLTTDPDLYLEVLR [I19Y] | 2.67 |
| WTVANMEEIKKLTTDPDLSLEVLR [I19S] | 3.09 |
| WTVANMEEIKKLTTDPDLPLEVLR [I19P] | 3.42 |
| WTVANMEEIKKLTTDPDLGLEVLR [I19G] | 2.26 |
| WTVANMEEIKKLTTDPDLKLEVLR [I19K] | 3.21 |
| WTVANMEEIKKLTTDPDLMLEVLR [I19M] | 2.73 |
| WTVANMEEIKKLTTDPDLCLEVLR [I19C] | 1.96 |
| WTVANMEEIKKLTTDPDLELEVLR [I19E] | 3.4 |
